Paper PMC10272163, “Genome-wide association studies identify OsWRKY53 as a key regulator of salt tolerance in rice”

B1: OsHKT1;5 (SKC1) promoter W-box probe, 48 bp (SKC1-biotin-F1) (dsDNA)
DNA 1: ATAAGATGTTTTTGACTTTGGTCAAAGTCAAACTGTTTATGTTTGACC
DNA 2: GGTCAAACATAAACAGTTTGACTTTGACCAAAGTCAAAAACATCTTAT
B2: OsMKK10.2 promoter W-box probe, 48 bp (MKK10.2-biotin-F1) (dsDNA)
DNA 1: CGGTTTGGGAACCGACTTAGGGCGGTCAAGGCGCGAGCTGGCGCTCCG
DNA 2: CGGAGCGCCAGCTCGCGCCTTGACCGCCCTAAGTCGGTTCCCAAACCG

Target: MBP-OsWRKY53 (Oryza sativa (rice), UniProt A7BEY7 1-487)
Sequence (A7BEY7 entry or part of it): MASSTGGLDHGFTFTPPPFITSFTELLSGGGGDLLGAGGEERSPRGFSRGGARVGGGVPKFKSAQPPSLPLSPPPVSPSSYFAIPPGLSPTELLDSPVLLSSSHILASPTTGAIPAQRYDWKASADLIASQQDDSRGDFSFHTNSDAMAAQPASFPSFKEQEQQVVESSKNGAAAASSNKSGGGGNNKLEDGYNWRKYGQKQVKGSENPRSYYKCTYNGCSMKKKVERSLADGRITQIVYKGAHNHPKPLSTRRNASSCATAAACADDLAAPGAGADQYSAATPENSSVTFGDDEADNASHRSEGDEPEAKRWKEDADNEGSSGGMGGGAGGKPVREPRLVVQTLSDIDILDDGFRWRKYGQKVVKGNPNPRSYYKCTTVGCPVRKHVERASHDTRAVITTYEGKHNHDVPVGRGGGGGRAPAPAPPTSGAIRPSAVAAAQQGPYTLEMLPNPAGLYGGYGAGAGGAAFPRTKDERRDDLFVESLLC
Assay: EMSA; 60 fmol probe, 2 ug protein; EMSA: 20 uL, 25 C 30 min, LightShift kit buffer (composition not given), 6% native PAGE, 0.5x TBE pH 8.3, 4 C; SPR: CM5 chip with anti-biotin antibody capturing biotin-oligo, 10 uL/min, reaction buffer composition and temperature not given
Conditions: protein: recombinant; tags: MBP (N-terminal, pMal-c2x); label: biotin

Row | Binder | binding result
1 | B1 | binds
2 | B2 | binds
